± gives the uncertainty stated by the source.
Test: protein stability index of a GFP-peptide fusion (yeast GPS) (PSI 1-4); higher = more stable; sorted into four equal gates, so the index is relative within each strain
Outline: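 Yeast carrying a pooled library were grown to mid-log phase in leucine-free medium. Each library plasmid expresses Cherry and has a tiled 17-residue yeast protein peptide fused downstream of GFP. Cells were sorted into four equal gates by GFP/Cherry ratio, and plasmids from each gate were PCR-amplified, Illumina-sequenced and assigned to strains by barcode. Summing, across gates, the read frequency times the gate number gave each peptide's protein stability index.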

| Sequence | protein stability index (doa10∆) | protein stability index (pdr5∆) | protein stability index (san1∆) | protein stability index (ubr1∆) |
| --- | --- | --- | --- | --- |
| TFAVILFLIIQCYKIYD [YMR129W/POM152] | 1.35 ± 0.057 | 1.22 ± 0.046 | 1.19 ± 0.094 | 1.31 ± 0.053 |
| RFFWKRSTNKKSKILRK [UBP6] | 1.19 ± 0.19 |  |  | 1.28 ± 0.16 |
| DGLLEYLEDIIGTANYK [SMC4] | 2.38 ± 0.072 | 2.53 ± 0.055 | 2.6 ± 0.078 | 2.36 ± 0.054 |
| PFGAKSTKSNKTRNPLT [RPL8A] | 2.73 ± 0.072 | 2.99 ± 0.062 | 2.88 ± 0.057 | 2.8 ± 0.056 |
| YSKNNPNLLFSMCGFEV [PRP8] | 2.96 ± 0.093 | 2.69 ± 0.093 | 2.17 ± 0.076 | 2.4 ± 0.092 |
| GEFETKIAGIEGHLAEI [SRB2] |  |  |  | 3.1 ± 0.13 |
| MIVPVRCFSCGKVVGDK [RPB10] | 2.64 ± 0.17 | 2.59 ± 0.12 | 2.13 ± 0.1 | 2.66 ± 0.092 |
| VPVRDGVTIEFSTNVKD [RPL9A] | 1.35 ± 0.27 | 1.58 ± 0.26 |  |  |
| TRSKRLSQVYPTLVRSV [CSN12] | 1.72 ± 0.12 | 2.1 ± 0.22 |  |  |
| IKIVSDKKVLVKVQPEG [RPT6] | 2.75 ± 0.1 | 2.83 ± 0.09 | 2.85 ± 0.12 | 2.74 ± 0.07 |
| EIAGLSPYERRLIDLIR [RPL36A] | 2.31 ± 0.088 | 2.37 ± 0.077 | 2.02 ± 0.14 | 2.29 ± 0.071 |
| VMRNTYNTRKNAVTAAA [GAL11] | 1.78 ± 0.045 | 1.94 ± 0.051 | 2.11 ± 0.07 | 1.97 ± 0.036 |
| SRGINKGHKFNNTKAGR [RPL15A] | 3.28 ± 0.29 | 3 ± 0.2 |  | 3.4 ± 0.17 |
| NESSTFLKLVLSESPVD [SIN4] | 2.1 ± 0.041 | 1.95 ± 0.052 | 2.05 ± 0.073 | 2.02 ± 0.046 |
| EATLLTNSNNGSSNNNT [SNF5] | 3 ± 0.087 | 3.32 ± 0.13 | 3.14 ± 0.1 | 3.21 ± 0.065 |
| VHCRISCQIAQPYEDRP [RRP45] | 1.63 ± 0.064 | 2.12 ± 0.12 | 1.52 ± 0.22 | 1.92 ± 0.077 |
| PFDQNLDSNNNNSNSNN [SWI1] | 2.65 ± 0.033 | 2.74 ± 0.037 | 2.839 ± 0.026 | 2.74 ± 0.027 |
| VLFITPDIVGHEFTLSF [BRR2] | 1.87 ± 0.049 | 2.29 ± 0.049 | 2.18 ± 0.055 | 2.3 ± 0.04 |
| NLTDEGYQWGEENKDIM [PRP8] | 2.81 ± 0.21 |  |  | 3.2 ± 0.23 |
| HELGINIDSLKFNELVK [BRR2] | 2.89 ± 0.07 | 2.93 ± 0.058 | 3.08 ± 0.054 | 2.9 ± 0.06 |
| HNGSHRTVAGFSNVELP [ARP7] | 3.1 ± 0.071 | 2.83 ± 0.07 | 2.72 ± 0.085 | 2.8 ± 0.048 |

| Sequence | protein stability index (doa10∆) | protein stability index (pdr5∆) | protein stability index (san1∆) | protein stability index (ubr1∆) |
| --- | --- | --- | --- | --- |
| LEDIYTSAHEAIRADPA [RPL5] | 3.04 ± 0.066 | 2.98 ± 0.082 | 3.13 ± 0.072 | 3.19 ± 0.051 |
| QLKDMQTIEMITQIVEK [SRB8] | 2.87 ± 0.069 | 3.19 ± 0.075 | 2.94 ± 0.059 | 2.85 ± 0.056 |
| VDGEAVGDEFKGYVFKI [RPS6A] |  | 3.79 ± 0.18 |  |  |
| FDKIIKIREDHINKIPS [SRB8] | 2.67 ± 0.12 | 2.95 ± 0.066 | 2.96 ± 0.06 | 2.81 ± 0.062 |
| KVSYAVKKPQKSKTSTG [SNM1] | 2.85 ± 0.1 | 3.15 ± 0.13 | 2.66 ± 0.12 | 3.24 ± 0.079 |
| ALNGIDINTVNTNLMNG [GRR1] | 3.29 ± 0.051 | 3.2 ± 0.052 | 3.08 ± 0.042 | 3.1 ± 0.045 |
| KLKRNSDRREHDEKLSD [LIN1] | 3.51 ± 0.23 | 2.49 ± 0.16 | 3.22 ± 0.11 | 2.96 ± 0.13 |
| DPSMDPELAMALRLSME [RPN10] | 2.98 ± 0.062 | 3.18 ± 0.05 | 3.28 ± 0.068 | 2.96 ± 0.054 |
| RKTWKRQNTLSLWRYRK [RPL15A] | 3.45 ± 0.083 | 3.1 ± 0.074 | 3.3 ± 0.052 | 3.36 ± 0.046 |
| GRYLLTPPDDLHPYVPS [SRB8] | 2.36 ± 0.057 | 2.41 ± 0.056 | 2.55 ± 0.061 | 2.66 ± 0.039 |
| TRINGLNSNNSIIGNKN [REC8] | 3.2 ± 0.089 | 3.04 ± 0.072 | 3.21 ± 0.048 | 2.98 ± 0.051 |
| PMHSIMPNSSLQPFYSQ [DSN1] | 2.12 ± 0.072 | 2.65 ± 0.061 | 2.37 ± 0.083 | 2.49 ± 0.048 |
| EMNLHVPQTEEARAEAI [RPO31] | 3.09 ± 0.1 | 3.08 ± 0.085 | 3.05 ± 0.08 | 3.12 ± 0.045 |
| NGCIFTLNPKTGHLFLK [PRP8] | 3.24 ± 0.064 | 2.92 ± 0.082 | 2.98 ± 0.083 | 2.97 ± 0.083 |
| ERGGKFHESGSQYSTMV [RGR1] | 3.36 ± 0.12 | 3.45 ± 0.12 | 3.44 ± 0.25 | 3.3 ± 0.14 |
| DIRKFLDGIYVSHKGFI [RPL9A] | 1.39 ± 0.1 | 2.08 ± 0.077 | 1.77 ± 0.16 | 3.23 ± 0.1 |
| PKYESLKLEYYNLLVKI [RPN5] | 2.1 ± 0.084 | 1.48 ± 0.1 | 1.12 ± 0.3 | 1.24 ± 0.059 |
| AVYFADTSGLKISNSEF [SIN4] | 2.96 ± 0.072 | 3.32 ± 0.08 | 3.1 ± 0.049 | 3.18 ± 0.063 |
| PKEVDGLEVGPVVQVGI [IRR1] | 3.38 ± 0.11 | 2.98 ± 0.088 | 3.37 ± 0.18 | 3.23 ± 0.08 |
| YFSNKTSTGIIRCHRED [POP5] | 2.98 ± 0.17 | 2.68 ± 0.1 | 2.62 ± 0.081 | 2.06 ± 0.059 |
